Test system: NC(=O)C1=CN([C@@H]2O[C@H](COP(=O)(O)OP(=O)(O)OC[C@H]3O[C@@H](n4cnc5c(N)ncnc54)[C@H](OP(=O)(O)O)[C@@H]3O)[C@@H](O)[C@H]2O)C=CC1
Assay: purified protein
Type: biochemical, Scoparia dulcis
Details: 100 μM cytochrome c, varied NADPH; 28 °C, pH 7.5 in table footnote (methods: 25 °C, 50 mM Tris pH 7.4)

SdCPR (Scoparia dulcis), sequence (chain, as listed by the source): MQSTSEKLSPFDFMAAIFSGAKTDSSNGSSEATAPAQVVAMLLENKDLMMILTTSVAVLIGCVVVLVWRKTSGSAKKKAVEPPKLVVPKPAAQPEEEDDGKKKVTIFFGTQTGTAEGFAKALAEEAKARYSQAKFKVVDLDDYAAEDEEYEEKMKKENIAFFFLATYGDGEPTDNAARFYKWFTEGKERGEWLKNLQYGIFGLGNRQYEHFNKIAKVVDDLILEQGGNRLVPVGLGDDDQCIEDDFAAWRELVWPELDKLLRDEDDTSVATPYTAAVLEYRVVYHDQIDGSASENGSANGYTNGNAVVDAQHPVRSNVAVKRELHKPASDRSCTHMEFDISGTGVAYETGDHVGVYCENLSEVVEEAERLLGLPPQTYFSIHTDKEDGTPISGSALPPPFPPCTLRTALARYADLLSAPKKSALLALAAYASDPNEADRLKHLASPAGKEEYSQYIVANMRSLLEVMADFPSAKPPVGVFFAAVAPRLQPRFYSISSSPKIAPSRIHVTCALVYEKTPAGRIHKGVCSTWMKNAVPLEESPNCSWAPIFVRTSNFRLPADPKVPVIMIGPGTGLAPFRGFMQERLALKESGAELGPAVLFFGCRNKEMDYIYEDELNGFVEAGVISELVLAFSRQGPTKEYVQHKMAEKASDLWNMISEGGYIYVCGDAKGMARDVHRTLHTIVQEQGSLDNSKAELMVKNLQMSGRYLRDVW

Substance: SdCPR (Scoparia dulcis)
- Km: 4.6 ± 0.9 µM
- Vmax: 2.3 µmol/min/mg
- kcat: 2.96 ± 0.13 s⁻¹
- kcat/Km: 665000 M⁻¹ s⁻¹
